Laboratory results: the RNAGym collection of RNA variant scans (doi:10.1021/acssynbio.7b00057)

B1: Pistol ribozyme (parent)
chain: GGGUCGUUGUUCCAUAAUCGCGUGGAUAUGGCACGCAAGUUUCUACCGGGCACCGUAAAUGUCCGACUGGAGCCGUUCGGGCGGCUAUAAACAGACCUCAGGCCCGAAGCGUGGCGGCACCUGCCGCCGGUGGUAAAAAAGAUCGGAAGAGCACACGUCU

Variants of: B1
Assay: aptazyme ON/OFF ratio, guanine; higher = stronger switching; co-transcriptional cleavage with and without guanine

| Variant | aptazyme ON/OFF ratio |
| --- | --- |
| U7G U8G G9A U10G U11C C12U | 1.27 |
| U8C G9A | 1.78 |
| U7C U8G G9C U10C U11C C12G C13A | 1.19 |
| G9A U10C U11A C12U C13A | 1.35 |
| U7A U8A G9U U10A U11C C12U C13U | 1.21 |
| U7A U8G U10C C12G | 1.12 |
| U8C G9C C12G C13A | 1.14 |
| U7C U10G U11C C12U C13U | 1.27 |
| U8C U10G U11C C12G C13A | 1.18 |
| U7A U11A C12A C13U | 1.41 |
| U7G G9U U10C U11C C12A C13G | 1.4 |
| U8G G9U U10C U11C C12A C13G | 1.1 |
| U8C G9U U10G U11A C12U | 1.04 |
| U7A U8G U10A C12A C13U | 1.48 |
| U7A G9A U10G U11A C12A C13G | 1.15 |
| U7A U8A U10C U11C C12A C13A | 1.06 |
| U7C U11A C12A | 1.51 |
| U7A G9U U10A U11A C12G C13G | 1.25 |
| U8C U11A C12U C13G | 1.18 |
| U10A U11C C12A | 1.16 |
| U8A U10C C12A C13A | 1.23 |
| U7A U8A G9C C12A | 1.22 |
| U7C U8A U10G U11G C12U | 1.28 |
| U8A G9U | 2.15 |

| Variant | aptazyme ON/OFF ratio |
| --- | --- |
| U8C G9A U10C U11A C12U | 1.55 |
| U7G U8C G9A U10G U11G C12U | 1.35 |
| U7A U8G G9U C12A C13U | 1.2 |
| U7G U8A G9C | 1.12 |
| U7G U8G G9C U10C C13A | 1.44 |
| U8G G9U C12A C13G | 1.22 |
| U7C U8A G9U U10G C13G | 1.08 |
| U7A U8G G9U U10G U11G C12G C13U | 0.953 |
| U7A U8A U10A U11A C12G C13U | 1.13 |
| U7A U8G U10A U11C C13G | 1.25 |
| U8C G9C U10A U11G C12U C13G | 1.15 |
| U7A U8C U11A C12G | 1.16 |
| U7G G9C U10G C13G | 1.23 |
| U7C U8A G9C U11G C12A C13U | 1.15 |
| U7A U8G G9A U11G C12G | 1.32 |
| U8A G9C U11G C13G | 1.04 |
| U7A G9U U10C U11A C12U C13A | 1.23 |
| U7G U8A G9C U10A U11C C12G C13A | 1.04 |
| U7G U8C G9C C13G | 1.05 |
| U7A U8A G9A U10A U11C C12A C13A | 1.2 |
| U7C U8G G9C U11G C12U C13A | 1.2 |
| U7C U8A G9A U11A C12A C13G | 1.22 |
| U7G G9C U10C U11G C12A | 1.14 |
| U7G U8C G9U U10A U11G C12G C13U | 1.1 |

| Variant | aptazyme ON/OFF ratio |
| --- | --- |
| U7A U8C G9A C12U | 1.21 |
| U7A U8G G9A U11A | 1.7 |
| U7C U8G G9A C12U | 1.19 |
| U7A U8C G9A U10G U11C C12A C13A | 1.18 |
| U7A U8C U10A U11A C13G | 1.29 |
| U7G U8A G9U U10G U11A C12U C13G | 1.03 |
| U7A U8G G9U U10G U11A C12A C13A | 1.16 |
| U7A U8C G9C U10C U11G C12G C13G | 1.08 |
| U7G U8C G9A U11A | 2.48 |
| U7G U10G U11G C12U C13A | 1.13 |
| U7A U10A U11A C12U C13G | 1.26 |
| U7G G9A U10C U11G C13U | 1.14 |
| U8G G9C U10G C12G | 1.19 |
| U7A U8A G9A U10A U11A C12U C13A | 1.17 |
| U7A G9C U10C U11C C12U | 1.04 |
| U7A U8G G9C U10G U11G C12U C13A | 1.2 |
| U7C U8C G9A C12U C13A | 1.27 |
| U7C U8G G9C U10C U11C C12A | 1.04 |
| U8A G9A U10C U11G C12A C13A | 1.19 |
| G9U U10A U11A C12A C13A | 1.37 |
| U7A U8G U11A C12A C13G | 1.3 |
| U7C U8A G9A U10A U11C C13U | 1.05 |
| U7C U8A U10A U11G C12A C13A | 1.12 |
| U7A U8G G9C U10G C13G | 1.19 |

| Variant | aptazyme ON/OFF ratio |
| --- | --- |
| U7C U8A G9U U10G C12A | 1.12 |
| U7G U8C U10G C12U C13U | 1.36 |
| U7G U8C U10A U11G C12U | 1.22 |
| U7C G9U C12G | 1.14 |
| U7A U8A G9A U10G U11A C12G C13A | 1.08 |
| U7G U8G G9U U11A C12G C13G | 1.06 |
| U7C U8C U10A U11G | 1.37 |
| U7A U8G U10G U11A C12A C13U | 1.34 |
| U7C U8G G9A U10C C12U C13G | 1.07 |
| U7C U8A G9C U10G C13A | 1.15 |
| U7A U8A C12G C13U | 1.48 |
| U7C U8A U10C C13A | 1.09 |
| U7C U8A G9C U10A U11A C12U C13U | 1.11 |
| U7C G9C C12U C13G | 1.04 |
| U8A G9C U10G U11A C12U C13U | 1.08 |
| U7C U8C G9A U11C C12U C13G | 1.08 |
| U7G U8C G9C U10A U11A C12A C13G | 1.09 |
| U7C U8C G9A U10C U11G C12G C13U | 1.17 |
| U7A U8A G9U U10C C13G | 1.03 |
| U7C G9C U10A U11G C12U | 1.05 |
| U8A G9U U10G U11G C12A C13G | 1.14 |
| U7G U8A G9U U10G C12U | 1.13 |
| U7G U11C | 1.11 |
| U8A G9A U11C C12A | 1.16 |

| Variant | aptazyme ON/OFF ratio |
| --- | --- |
| U7C U8C G9A C12U | 1.72 |
| U8C G9C U11G C12A C13U | 1.1 |
| U7C U8G U10A U11C C12A C13A | 1.14 |
| U7A U10G U11G C13A | 1.12 |
| U8A G9U C12G C13U | 1.26 |
| U7G U8A G9A U10C U11G C13G | 1.15 |
| U7C G9A U10C U11A C12G | 1.14 |
| U7G U8G G9C U10A U11C C12A C13A | 1.07 |
| U7G U8C G9C U10C U11C C12A | 1.05 |
| U7G U8C G9A U11A C13G | 1.03 |
| U8G G9C U10A U11A C12U C13A | 1.14 |
| U7A U8A G9U C12G C13A | 1.19 |
| U7C U8A G9U U11C C12U | 1.17 |
| U7C G9C U10A C12U | 1.06 |
| U7A U8A G9U U10A U11C C13U | 1.01 |
| U10A U11C C12G C13A | 1.15 |
| U7G U8C G9U U10A U11G C12U C13A | 1.2 |
| U7G U8A G9A U10A C12G C13G | 1.09 |
| U8A U10C U11A C12U | 1.2 |
| U7G U8G G9U U10A U11A | 2.87 |
| U7A U8C G9C U11G C12A C13U | 1.11 |
| U7A U8C G9A U10C U11C C12U C13A | 1.05 |
| U7G G9U U11A C12A C13A | 1.3 |
| U7G U8G U10C U11A C13A | 1.38 |

| Variant | aptazyme ON/OFF ratio |
| --- | --- |
| U8A G9A U10G C12G C13A | 1.14 |
| U8A G9C U10C U11G C12U C13U | 1.07 |
| U7A U8A G9C U10A U11C C12G C13U | 1.27 |
| U7C U8A G9C U10C U11C C13A | 1.01 |
| U7G U8A G9A U10A C12G C13A | 1.06 |
| U7A U8A G9C U10G U11A C13G | 1.09 |
| U8A G9A U10G U11G C12A C13A | 1.12 |
| U8A G9U U10A U11A C12A | 1.36 |
| G9A C12U C13G | 1.62 |
| U7C G9A U10C U11A C12U C13G | 1.22 |
| U7G U8A G9A U10G U11A C12G C13G | 1.29 |
| U7A U8G U10G U11A C12A C13G | 1.27 |
| U7C U8C G9C C12U C13U | 1.14 |
| U7G G9C U10A U11C C13U | 1.14 |
| U8C G9U U10G U11C C12G C13A | 1.22 |
| U7C U8G U10C U11G C12A C13A | 1.11 |
| U7A U8G G9A U11G | 1.64 |
| U7C U8A G9C U10G U11A C12G | 1.32 |
| U7C U8C G9U U10G U11A | 1.32 |
| U7C U8C G9C U10A U11A C12G C13U | 1.09 |
| U7G U8A G9C U10C U11C | 1.01 |
| U7A U8G U10G U11G C12A | 1.24 |
| U8C G9A U10G U11G C12G C13U | 1.11 |
| U7G U8C G9A U10A U11G C12A C13G | 1.12 |

| Variant | aptazyme ON/OFF ratio |
| --- | --- |
| U7A U8G U10A U11A C12G C13A | 1.56 |
| U7A U8G G9C U10C U11A C12A | 1.21 |
| U7A U8C U10G U11G C12U C13G | 1.23 |
| U7A U8G G9U U10A U11G | 2.03 |
| U7C U8C U11C C12U C13U | 1.43 |
| U7G G9A U10A U11C C12U | 1.05 |
| U7A U8G G9C U10G C12U | 1.44 |
| U8C U10A U11A C13G | 1.22 |
| U7C G9C U10C U11G C13A | 1.12 |
| U7G U8G G9U U10G U11A C12A C13U | 1.18 |
| U7A G9C U10A U11G | 1.09 |
| U7G G9U C12G C13G | 1.22 |
| U7G G9C U11C C12U C13U | 1.25 |
| U7C U8A G9U C12G C13U | 1.22 |
| U7C U8G G9C U10C U11C C12U C13G | 1.04 |
| U8C G9U U10A C12G C13U | 1.17 |
| G9U U10C U11A | 3.16 |
| U8G U11C C12U C13A | 1.33 |
| U8G G9U U10C U11G C12U | 1.19 |
| U8A G9C U10G C12A C13A | 1.19 |
| U7G U8A U10G C12G | 1.13 |
| U8A G9C U10A U11G C12G | 1.18 |
| U7C U8A G9U U10G C12G C13G | 1.12 |
